Laboratory results reported in patent publication US20060067886A1, “Gastrin receptor-avid peptide conjugates” (priority 1997, published 2006).
Read-outs that look alike come from different tables or passages of the source.

How the values were obtained:
[1] = molecular target: T1, GRP receptors on Swiss 3T3 cells (Mus musculus, UniProt P21729); assay: Competitive cell binding vs 125I-Tyr4-BBN, Swiss 3T3 cells
T1 construct: endogenous in cells; host or cells: Swiss 3T3 mouse fibroblasts (whole cells)
Experimental: The binding affinities of the synthetic BBN derivatives were assessed for GRP receptors on Swiss 3T3 cells and, in some cases, on a variety of human cancer cell lines, that express GRP receptors. […] The cell binding assay methods used to measure the IC50's is standard and used techniques previously reported [Jensen et al., 1993; Cai et al., 1994; Cai et al., 1992]. The methods used for determining IC50's for all GRP receptor binding compounds on all cell lines was similar. The specific method used to measure IC50's on Swiss 3T3 cells is briefly described as follows:
(§1) Swiss 3T3 mouse fibroblasts are grown to confluence in 48 well microtiter plates. […] The growth media was removed, the cells were washed twice with incubation media, and incubation media was returned to the cells. ^125I-Tyr4-BBN (0.01 uCi) was added to each well in the presence of increasing concentrations of the appropriate competitive peptide. Typical concentrations of displacing peptide ranged from 10-12 to 10-5 moles of displacing ligand per well. The cells were incubated at 37° C. for forty minutes in a 95% […]/5% CO2 humidified environment. At forty minutes post initiation of the incubation, the medium was discarded, and the cells were washed twice with cold incubation media. The cells were harvested from the wells following incubation in a trypsin/EDTA solution for five minutes at 37° C. Subsequently, the radioactivity, per well, was determined and the maximum % total uptake of the radiolabeled peptide was determined and normalized to 100%.
The binding affinities of the synthetic BBN derivatives were assessed for GRP receptors on Swiss 3T3 cells, PC-3 cells and CF PAC-1 cells. The IC50's of each of derivative were determined relative to (i.e., in competition with) ^125I-Tyr^4-BBN. The cell binding assay methods used to measure the IC50's is standard and was used by techniques previously reported [Jensen et al., 1993; Cai et al., 1992; Cai et al., 1994]. The methods used for determining IC50's with all BBN analogue binding to GRP receptors present on all three cell lines were similar. The specific method used to measure IC50's on Swiss 3T3 cells, is briefly described as follows:
as §1, with “microliter” for “microtiter”, “^125I-Tyr^4-BBN” for “^125I-Tyr4-BBN”, “μCi)” for “uCi)”, “10^−12” for “10-12”, “10^−5” for “10-5”, “100%. A similar procedure was used in performing cell binding assays with both the PC-3 and CFa-PAC-1 human cancer cell lines.” for “100%.”

[2] = test system: PC-3 cells; assay: Internalization and efflux of In-DOTA-8-Aoc-BBN in PC-3 cells; type: cell-based, human
Experimental: Internalization and efflux studies. […] The percent of cell-associated activity as a function of time (in the incubating medium at 37° C.) was determined. The percentage radioactivity trapped in the cells was determined after removing activity bound to the surface of the cells by washing with a pH-2.5 (0.2M acetic acid and 0.5M NaCl) buffer 1, 2, 3 and 4 hours afterwards.

[3] = molecular target: T2, GRP receptors on PC-3 cells (Homo sapiens, UniProt P30550); assay: Competitive cell binding vs 125I-Tyr4-BBN, PC-3 cells
T2 construct: two different human cancer cell lines that express GRP receptors (i.e., CF-PAC1 and PC-3 cell lines); host or cells: PC-3 human prostate cancer cells (whole cells)

[4] = molecular target: T3, GRP receptors on CF PAC-1 cells (Homo sapiens, UniProt P30550); assay: Competitive cell binding vs 125I-Tyr4-BBN, CF PAC-1 cells
T3 construct: two different human cancer cell lines that express GRP receptors (i.e., CF-PAC1 and PC-3 cell lines); endogenous in cells; host or cells: CFPAC-1 human pancreatic cancer cells (whole cells)

[5] = test system: PC-3 human tumor xenografts; assay: in vivo
Experimental: In vivo pharmacokinetic studies in human tumor bearing SCID mice. […] The xenograft models were produced by bilateral flank inoculation of 5×10^6 cells (PC-3 or MDA-MB-231 cells) per site. Four to six weeks post inoculation, palpable tumors were observed. At this point, the mice were injected with 4 μCi of the complex in […] of isotonic saline via the tail vein. The mice were euthanized and tissues and organs were excised from the animals at selected times post-injection (p.i.), including 15 minutes, 30 minutes, 1 hour, 4 hours, 24 hours, 48 hours, and 72 hours p.i. Subsequently, the tissues and organs were weighed and counted in a NaI well counter and the percent injected dose (% ID) and % ID/g of each organ or tissue calculated.
The mice were injected with 4 μCi of the complex in 100 μL of isotonic saline via the tail vein. The mice were euthanized by cervical dislocation. Tissues and organs were excised from the animals following at 1 hour, 4 hour, and 24 hours post-injection (p.i.). Subsequently, the tissues and organs were weighed and counted in a NaI well counter and the percent injected dose (% ID) and % ID/g of each organ or tissue calculated.

[6] = test system: MDA-MB-231 human tumor xenografts;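 further: SCID mice bearing bilateral flank PC-3 or MDA-MB-231 xenografts, tail-vein dosing, organs sampled from 15 min to 72 h post-injection, radioactivity measured with NaI well counter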
[7] = Biodistribution of radiometal-DOTA-BBN conjugates in CF1 normal mice; conditions: 1 hour post-injection

T3 sequence (P30550 whole entry): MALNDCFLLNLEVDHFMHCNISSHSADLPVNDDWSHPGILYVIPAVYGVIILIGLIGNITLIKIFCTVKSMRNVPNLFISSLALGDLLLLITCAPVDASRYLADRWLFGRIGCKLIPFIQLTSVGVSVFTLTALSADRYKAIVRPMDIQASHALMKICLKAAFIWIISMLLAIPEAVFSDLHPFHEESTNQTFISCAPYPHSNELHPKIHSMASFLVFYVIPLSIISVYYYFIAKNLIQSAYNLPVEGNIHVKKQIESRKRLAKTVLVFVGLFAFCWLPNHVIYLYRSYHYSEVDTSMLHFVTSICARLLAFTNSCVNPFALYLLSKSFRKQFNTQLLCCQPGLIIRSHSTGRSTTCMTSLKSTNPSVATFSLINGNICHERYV
T2 sequence (P30550 whole entry): as above
T1 sequence (P21729 whole entry): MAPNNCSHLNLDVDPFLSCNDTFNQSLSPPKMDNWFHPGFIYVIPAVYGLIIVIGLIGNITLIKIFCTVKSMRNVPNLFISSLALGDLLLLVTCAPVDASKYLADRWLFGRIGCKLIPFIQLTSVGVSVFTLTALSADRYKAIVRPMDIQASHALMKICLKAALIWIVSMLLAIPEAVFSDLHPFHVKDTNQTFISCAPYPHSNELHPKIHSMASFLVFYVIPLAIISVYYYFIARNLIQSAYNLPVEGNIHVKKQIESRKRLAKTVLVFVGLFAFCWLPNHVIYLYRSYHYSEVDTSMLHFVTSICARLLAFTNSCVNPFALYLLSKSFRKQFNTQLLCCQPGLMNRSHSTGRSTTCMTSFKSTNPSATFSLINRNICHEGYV

CSCC[C@H](NC(=O)[C@H](CC(C)C)NC(=O)[C@H](Cc1c[nH]cn1)NC(=O)CNC(=O)[C@@H](NC(=O)[C@H](C)NC(=O)[C@H](Cc1c[nH]c2ccccc12)NC(=O)[C@H](CCC(N)=O)NC(=O)CCCCCCCNC(=O)COC1CSCCCSCCCSCCCSC1)C(C)C)C(N)=O [BBN-47]
IC50 [1]: 4.19 ± 0.91 nM

CSCC[C@H](NC(=O)[C@H](CC(C)C)NC(=O)[C@H](Cc1c[nH]cn1)NC(=O)CNC(=O)[C@@H](NC(=O)[C@H](C)NC(=O)[C@H](Cc1c[nH]c2ccccc12)NC(=O)[C@H](CCC(N)=O)NC(=O)CCCCCCCNC(=O)CN1CCN(CC(=O)O)CCN(CC(=O)O)CCN(CC(=O)O)CC1)C(C)C)C(N)=O [In-DOTA-8-Aoc-BBN[7-14]NH2]
internalization [2]: rapid receptor mediated endocytosis | retention within cells [2]: remained retained within the cells for a prolonged time period

CSCC[C@H](NC(=O)[C@H](CC(C)C)NC(=O)[C@H](Cc1c[nH]cn1)NC(=O)CNC(=O)[C@@H](NC(=O)[C@H](C)NC(=O)[C@H](Cc1c[nH]c2ccccc12)NC(=O)[C@H](CCC(N)=O)NC(=O)CNC(=O)COC1CSCCCSCCCSCCCSC1)C(C)C)C(N)=O [BBN-99]
IC50 [1]: 1 to 6 nM | IC50 ([3]; PC-3 cells, read-out: IC50): 1 to 6 nM | IC50 [4]: 1 to 6 nM

CSCC[C@H](NC(=O)[C@H](CC(C)C)NC(=O)[C@H](Cc1c[nH]cn1)NC(=O)CNC(=O)[C@@H](NC(=O)[C@H](C)NC(=O)[C@H](Cc1c[nH]c2ccccc12)NC(=O)[C@H](CCC(N)=O)NC(=O)CNC(=O)CNC(=O)COC1CSCCCSCCCSCCCSC1)C(C)C)C(N)=O [BBN-98]
IC50 [1]: 1 to 6 nM | IC50 ([3]; PC-3 cells, read-out: IC50): 1 to 6 nM | IC50 [4]: 1 to 6 nM

CSCC[C@H](NC(=O)[C@H](CC(C)C)NC(=O)[C@H](Cc1c[nH]cn1)NC(=O)CNC(=O)[C@@H](NC(=O)[C@H](C)NC(=O)[C@H](Cc1c[nH]c2ccccc12)NC(=O)[C@H](CCC(N)=O)NC(=O)CCCCNC(=O)COC1CSCCCSCCCSCCCSC1)C(C)C)C(N)=O [RhCl2BBN-37]
IC50 [1]: 4.76 ± 0.79 nM | IC50 ([3]; PC-3 cells, read-out: IC50): ~7 nM | IC50 ([3]; Prostate CA, PC-3, read-out: IC50 (Mean Value)): 7 nM | IC50 [4]: ~7 nM

CSCC[C@H](NC(=O)[C@H](CC(C)C)NC(=O)[C@H](Cc1c[nH]cn1)NC(=O)CNC(=O)[C@@H](NC(=O)[C@H](C)NC(=O)[C@H](Cc1c[nH]c2ccccc12)NC(=O)[C@H](CCC(N)=O)NC(=O)CCCCNC(=O)COC1CSCCCSCCCSCCCSC1)C(C)C)C(N)=O [BBN-37]
IC50 [1]: 1.79 ± 0.09 nM

CSCC[C@H](NC(=O)[C@H](CC(C)C)NC(=O)[C@H](Cc1c[nH]cn1)NC(=O)CNC(=O)[C@@H](NC(=O)[C@H](C)NC(=O)[C@H](Cc1c[nH]c2ccccc12)NC(=O)[C@H](CCC(N)=O)NC(=O)CCNC(=O)COC1CSCCCSCCCSCCCSC1)C(C)C)C(N)=O [RhCl2BBN-46]
IC50 [1]: 3.38 ± 0.69 nM

CSCC[C@H](NC(=O)[C@H](CC(C)C)NC(=O)[C@H](Cc1cnc[nH]1)NC(=O)CNC(=O)[C@@H](NC(=O)[C@H](C)NC(=O)[C@H](Cc1c[nH]c2ccccc12)NC(=O)[C@H](CCC(N)=O)NC(=O)CCCCCCCNC(=O)CN1CCN(CC(=O)O)CCN(CC(=O)O)CCN(CC(=O)O)CC1)C(C)C)C(N)=O [111In-DOTA-8-Aoc-BBN[7-14]NH2] [metal not drawn]
Avg % ID, Blood ([5]; 1 hr): 0.92±0.58 % ID | Avg % ID, Carcass ([5]; 1 hr): 13.55 ± 6.05 % ID | Avg % ID, Liver ([5]; 1 hr): 1.41 ± 0.32 % ID | Avg % ID, Lung ([5]; 1 hr): 0.09 ± 0.07 % ID | Avg % ID, Pancreas ([5]; 1 hr): 3.49 ± 2.15 % ID | Avg % ID, Spleen ([5]; 1 hr): 0.09 ± 0.07 % ID | Avg % ID/gm, Liver ([5]; 1 hr): 1.34 ± 0.25 % ID/gm | Avg % ID/gm, Lung ([5]; 1 hr): 0.50 ± 0.39 % ID/gm | Avg % ID/gm, Pancreas ([5]; 1 hr): 18.80 ± 10.97 % ID/gm | Avg % ID/gm, Spleen ([5]; 1 hr): 1.39 ± 1.17 % ID/gm | Avg % ID, Carcass ([5]; 4 hrs): 2.92 ± 0.64 % ID | Avg % ID, L. Intestine ([5]; 4 hrs): 6.04 ± 2.05 % ID | Avg % ID, Liver ([5]; 4 hrs): 1.57 ± 0.72 % ID | Avg % ID, Muscle ([5]; 4 hrs): 0.0 ± 0.00 % ID | Avg % ID, Tumor ([5]; 4 hrs): 0.18 ± 0.17 % ID | Avg % ID/gm, Blood ([5]; 4 hrs): 0.27 ± 0.02 % ID/gm | Avg % ID/gm, Liver ([5]; 4 hrs): 1.44 ± 0.57 % ID/gm | Avg % ID/gm, Spleen ([5]; 4 hrs): 1.59 ± 0.27 % ID/gm | Avg % ID/gm, Stomach ([5]; 4 hrs): 0.96 ± 0.57 % ID/gm | excretion through the renal pathway ([5]; 24 hours p.i.): 87 % ID | Avg % ID, Carcass ([5]; 24 hrs): 1.69 ± 0.56 % ID | Avg % ID, Heart ([5]; 24 hrs): 0.00 ± 0.01 % ID | Avg % ID, Pancreas ([5]; 24 hrs): 1.19 ± 0.49 % ID | Avg % ID, Stomach ([5]; 24 hrs): 0.09 ± 0.02 % ID | Avg % ID/gm, Blood ([5]; 24 hrs): 0.10 ± 0.03 % ID/gm | Avg % ID/gm, Kidney ([5]; 24 hrs): 1.18 ± 0.14 % ID/gm | Avg % ID/gm, Lung ([5]; 24 hrs): 0.09 ± 0.07 % ID/gm | Avg % ID/gm, Pancreas ([5]; 24 hrs): 6.78 ± 1.15 % ID/gm | Avg % ID/gm, S. Intestine ([5]; 24 hrs): 0.89 ± 0.16 % ID/gm | Avg % ID/gm, Spleen ([5]; 24 hrs): 0.46 ± 0.20 % ID/gm | Avg % ID/gm, Stomach ([5]; 24 hrs): 0.30 ± 0.05 % ID/gm | Avg % ID, Carcass ([5]; 48 hrs): 0.57 ± 0.02 % ID | Avg % ID, Muscle ([5]; 48 hrs): 0.00 ± 0.00 % ID | Avg % ID/gm, Spleen ([5]; 48 hrs): 0.22 ± 0.22 % ID/gm | Avg % ID, Heart ([5]; 72 hrs): 0.00 ± 0.00 % ID | Avg % ID, Lung ([5]; 72 hrs): 0.00 ± 0.00 % ID | Avg % ID, Muscle ([5]; 72 hrs): 0.00 ± 0.00 % ID | Avg % ID/gm, Blood ([5]; 72 hrs): 0.01 ± 0.02 % ID/gm | Avg % ID/gm, Heart ([5]; 72 hrs): 0.01 ± 0.01 % ID/gm | Avg % ID/gm, Kidney ([5]; 72 hrs): 0.20 ± 0.02 % ID/gm | Avg % ID/gm, Muscle ([5]; 72 hrs): 0.01 ± 0.02 % ID/gm | initial tumor uptake retained ([6]; 4 hours): 46% | initial tumor uptake retained ([6]; 24 hours): 28% | Avg % ID, Blood [7]: 0.66 ± 0.13 % ID | Avg % ID, Carcass [7]: 5.01 ± 0.47 % ID | Avg % ID, Liver [7]: 1.02 ± 0.08 % ID | Avg % ID, Lung [7]: 0.07 ± 0.02 % ID | Avg % ID/gm, Heart [7]: 0.05 ± 0.02 % ID/gm | Avg % ID/gm, Kidney [7]: 2.37 ± 0.31 % ID/gm | Avg % ID/gm, L. Intestine [7]: 2.66 ± 1.07 % ID/gm | Avg % ID/gm, Lung [7]: 0.31 ± 0.07 % ID/gm | Avg % ID/gm, S. Intestine [7]: 4.43 ± 0.90 % ID/gm

CSCC[C@H](NC(=O)[C@H](CC(C)C)NC(=O)[C@H](Cc1c[nH]cn1)NC(=O)CNC(=O)[C@@H](NC(=O)[C@H](C)NC(=O)[C@H](Cc1c[nH]c2ccccc12)NC(=O)[C@H](CCC(N)=O)NC(=O)CCNC(=O)COC1CSCCCSCCCSCCCSC1)C(C)C)C(N)=O [BBN-46]
IC50 [1]: 2.34 ± 0.53 nM
